From patent US6428965 (Johns Hopkins, dated 2002) come the findings set out here.

In experiment [1] the target is T1, rat neuropilin (neuropilin-1), full length (rat, UniProt Q9QWJ9 22-922).
T1 construct: Expressed transiently on COS cells from pMT21-neuropilin
As to the kind of experiment: AP staining of transfected COS cells. As to the method:
FIGS. 1A to 1F. Sema-AP binds to neuropilin. COS cells were transfected with an expression vector encoding neuropilin (FIGS. 1A–1C) or the empty vector (FIG. 1D). After two days, cells were incubated with Sema-AP (FIG. 1A) or SEAP (FIG. 1B) and then processed for alkaline phosphatase activity, or cells were fixed and subjected to immunocytochemistry using anti-neuropilin IgG (FIGS. 1C and 1D). No neuropilin immunoreactivity was detected when COS cells expressing neuropilin were incubated with pre-immune IgG. (FIG. 1E) Anti-neuropilin immunoblot analysis of whole cell extracts prepared from COS cells that were transfected with the empty expression vector (lane 1) or an expression vector encoding neuropilin (lane 2). (FIG. 1F) Sema-AP binds directly to the extracellular domain of neuropilin. Either Sema-AP or SEAP was incubated with soluble myc-tagged neuropilin extracellular domain (myc-neuropilin^ex). Then, myc-neuropilin^ex was immunoprecipitated with an antibody directed against the myc epitope, and alkaline phosphatase activity in the immune complex was determined as described in the Examples. AP activity was measured as described in the Examples and is reported as OD$405$/second. Shown are the means +/− SEM of three independent experiments. Scale bar=25 μm.

Experiment [2] concerns the target T2, myc-tagged soluble neuropilin extracellular domain (myc-neuropilin^ex) (rat, UniProt Q9QWJ9 22-855).
T2 construct: Expressed in COS cells and used as culture medium
T2 sequence: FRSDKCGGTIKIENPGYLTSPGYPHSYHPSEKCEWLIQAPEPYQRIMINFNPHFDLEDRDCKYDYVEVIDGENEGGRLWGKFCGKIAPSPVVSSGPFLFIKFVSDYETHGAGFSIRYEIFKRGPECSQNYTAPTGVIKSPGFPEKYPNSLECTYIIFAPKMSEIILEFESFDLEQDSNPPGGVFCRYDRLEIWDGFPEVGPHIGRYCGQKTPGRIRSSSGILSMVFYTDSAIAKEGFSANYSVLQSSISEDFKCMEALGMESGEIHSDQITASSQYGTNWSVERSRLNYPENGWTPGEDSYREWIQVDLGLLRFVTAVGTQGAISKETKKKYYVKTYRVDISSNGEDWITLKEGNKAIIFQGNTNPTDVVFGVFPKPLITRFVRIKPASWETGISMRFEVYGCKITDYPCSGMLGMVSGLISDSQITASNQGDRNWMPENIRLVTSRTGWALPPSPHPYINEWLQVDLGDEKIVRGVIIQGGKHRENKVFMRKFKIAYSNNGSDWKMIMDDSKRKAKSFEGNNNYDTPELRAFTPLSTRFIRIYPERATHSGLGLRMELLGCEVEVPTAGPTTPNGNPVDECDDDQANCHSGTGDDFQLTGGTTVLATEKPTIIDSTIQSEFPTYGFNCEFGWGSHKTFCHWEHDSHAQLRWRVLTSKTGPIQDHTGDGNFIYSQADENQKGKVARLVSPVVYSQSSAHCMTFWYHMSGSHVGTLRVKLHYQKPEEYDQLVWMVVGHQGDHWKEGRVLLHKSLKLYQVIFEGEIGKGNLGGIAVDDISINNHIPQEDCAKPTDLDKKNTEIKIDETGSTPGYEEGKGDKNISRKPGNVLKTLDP
The experiment is described as follows: co-immunoprecipitation with anti-myc antibody, AP activity. As to the method:
Therefore, we next asked whether Sema-AP binds directly to neuropilin in a co-immunoprecipitation assay. For these experiments, an N-terminal myc-tagged neuropilin protein lacking the neuropilin transmembrane and intracellular domains (myc-neuropilin^ex) was used to assess whether the extracellular domain of neuropilin can directly interact with Sema III. Myc-neuropilin^ex was expressed in COS cells and the tissue culture medium was then incubated with either Sema-AP or SEAP alone. Upon precipitation of the myc-neuropilin^ex with a monoclonal antibody directed against the myc epitope, co-precipitation of Sema-AP was determined by the presence of AP activity in the immune complex (FIG. 1F). In contrast, no AP activity above background levels was detected in anti-myc immune complexes collected from samples in which myc-neuropilin was incubated with SEAP alone.
Co-precipitation of Sema-AP and the Secreted, Extracellular Domain of Neuropilin COS cell supernatant containing myc-neuropilin^ex, 293 EBNA cell supernatant containing SEAP, or 293 EBNA cell supernatant containing Sema-AP was filter-sterilized and concentrated. Samples containing equal amounts of control supernatants or supernatants containing myc-neuropilin^ex were mixed with samples containing either Sema-AP or SEAP (equal amounts of AP activity). These mixtures were incubated at room temperature for 2 hours. […]

The target of experiment [3] is T1, rat neuropilin (neuropilin-1), full …. As to the kind of experiment: whole cell binding, Scatchard analysis, COS cells transiently expressing neuropilin. On the procedure:
Because Coll-1 elicits biological effects at sub-nanomolar concentrations (Luo et al., 1993), we predicted that a bona fide Sema III receptor should bind to Sema III with high affinity. To determine the affinity of Sema-AP for neuropilin, neuropilin was transiently expressed in COS cells, and whole cell binding analyses were performed two days later (FIG. 3A). For comparison, the affinity of Sema-AP for its receptor(s) present on NGF-dependent sensory neurons prepared from dissociated E14 DRG was also determined (FIG. 3B). […] These binding affinities are similar to those recently described for netrins and their receptors (Keino-Masu et al., 1996; Leonardo et al., 1997) and Eph receptors and their ligands (Cheng and Flanagan, 1994; Monschau et al., 1997), and they are consistent with a role for neuropilin in Sema III-mediated growth cone collapse and in repulsive guidance of DRG neurons during neurodevelopment.
COS cells were transfected with 2 μg of pMT21-neuropilin, an expression vector encoding neuropilin, or either no DNA or the empty pMT21 expression vector using Lipofectamine (BRL), recovered in growth media, and then grown for 48 hours prior to binding analysis. Dissociated DRG neurons were cultured from E14 DRGs. […] Quantitiative cell surface binding was done essentially as described (Flanagan and Leder, 1990).

In experiment [4] the target is Sema-AP binding sites / Sema III receptor(s) on NGF-dependent rat E14 DRG sensory neurons. As to the kind of experiment: whole cell binding, Scatchard analysis, dissociated rat E14 DRG neurons.

B1: secreted placental alkaline phosphatase (SEAP) (enzyme, UniProt P05187 23-511, looked up)
chain: IIPVEEENPDFWNREAAEALGAAKKLQPAQTAAKNLIIFLGDGMGVSTVTAARILKGQKKDKLGPEIPLAMDRFPYVALSKTYNVDKHVPDSGATATAYLCGVKGNFQTIGLSAAARFNQCNTTRGNEVISVMNRAKKAGKSVGVVTTTRVQHASPAGTYAHTVNRNWYSDADVPASARQEGCQDIATQLISNMDIDVILGGGRKYMFRMGTPDPEYPDDYSQGGTRLDGKNLVQEWLAKRQGARYVWNRTELMQASLDPSVTHLMGLFEPGDMKYEIHRDSTLDPSLMEMTEAALRLLSRNPRGFFLFVEGGRIDHGHHESRAYRALTETIMFDDAIERAGQLTSEEDTLSLVTADHSHVFSFGGYPLRGSSIFGLAPGKARDRKAYTVLLYGNGPGYVLKDGARPDVTESESGSPEYRQQSAVPLDEETHAGEDVAVFARGPQAHLVHGVQEQTFIAHVMAFAACLEPYTACDLAPPAGTTDAAHPG
notes: Control for the AP part of Sema-AP
With B1, the binding result in experiment [1] and in experiment [2] was “no binding” throughout.

B2: H-Sema III-alkaline phosphatase fusion protein (Sema-AP) (ligand, human, UniProt Q14563 21-771, looked up)
chain: NYQNGKNNVPRLKLSYKEMLESNNVITFNGLANSSSYHTFLLDEERSRLYVGAKDHIFSFDLVNIKDFQKIVWPVSYTRRDECKWAGKDILKECANFIKVLKAYNQTHLYACGTGAFHPICTYIEIGHHPEDNIFKLENSHFENGRGKSPYDPKLLTASLLIDGELYSGTAADFMGRDFAIFRTLGHHHPIRTEQHDSRWLNDPKFISAHLISESDNPEDDKVYFFFRENAIDGEHSGKATHARIGQICKNDFGGHRSLVNKWTTFLKARLICSVPGPNGIDTHFDELQDVFLMNFKDPKNPVVYGVFTTSSNIFKGSAVCMYSMSDVRRVFLGPYAHRDGPNYQWVPYQGRVPYPRPGTCPSKTFGGFDSTKDLPDDVITFARSHPAMYNPVFPMNNRPIVIKTDVNYQFTQIVVDRVDAEDGQYDVMFIGTDVGTVLKVVSIPKETWYDLEEVLLEEMTVFREPTAISAMELSTKQQQLYIGSTAGVAQLPLHRCDIYGKACAECCLARDPYCAWDGSACSRYFPTAKRRTRRQDIRNGDPLTHCSDLHHDNHHGHSPEERIIYGVENSSTFLECSPKSQRALVYWQFQRRNEERKEEIRVDDHIIRTDQGLLLRSLQQKDSGNYLCHAVEHGFIQTLLKVTLEVIDTEHLEELLHKDDDGDGSKTKEMSNSMTPSQKVWYRDFMQLINHPNLNTMDEFCEQVWKRDRKQRRQRPGHTPGNSNKWKHLQENKKGRNRRTHEFERAPRSV
notes: Made in 293 EBNA cells from pCEP4 and used as supernatant; also called Sema III-AP; Sema III-secreted placental alkaline phosphatase fusion protein; not shown: secreted placental alkaline phosphatase of vector pAPtag-1 (Flanagan and Leder, 1990), C-terminal to Sema III; limits an
What is called Kd is the concentration at which binding is half-saturated. With B2, the Kd in experiment [3] is approximately 1.5 nM. The binding sites per cell (binding sites per cell) in experiment [4] is 20000.
